# From patent US20250352659A1, “SELF-STABILIZING LINKER CONJUGATES” (priority 2023, published 2025)
# Like-named read-outs stand apart in the source and are kept apart here.
# What was measured:
# Assay type in all cases: physicochemical
# [1] = Conjugator-antibody conjugate maleimide hydrolysis (ring opening) kinetics by reduced LCMS; settings: for half-life: buffer; for RO Completed Time (>95%): time for the maleimide ring to open in more than 95% of the conjugators
# Method: After the conjugation step, the ADC (or conjugator-antibody conjugate) was subjected to buffer exchange into ring opening buffer (pH 6.5˜9.0, PBS, borate or tris buffer) and the solution was left at 22 or 37° C. for 1˜48 h. The maleimide ring opening process was monitored via reduced LCMS. Once the conjugated maleimide hydrolysis was completed, the resulting ADCs were buffer exchanged into basic tris pH 8.0-8.5 buffer or acidic histidine-acetate pH 5.0-6.5 buffer via dialysis.
# LCMS method to monitor and determine maleimide hydrolysis. LC-MS analysis was carried out under the following measurement conditions: • LC-MS system: Vanquish Flex UHPLC and Orbitrap Exploris 240 Mass Spectrometer • Column: MAbPac™ RP, 2.1*50 mm, 4 μm, 1,500 Å, Thermo Scientific™ • Column temperature: 80° C. • Mobile phase A: 0.1% formic acid (FA) aqueous solution • Mobile phase B: Acetonitrile solution containing 0.1% formic acid (FA) • Gradient program 1: 25% B-25% B (0 min-2 min), 25% B-50% B (2 min-18 min), 50% B-90% B (18 min-18.1 min), 90% B-90% B (18.1 min-20 min), 90% B-25% B (20 min-20.1 min), 25% B-25% B (20.1 min-25 min) • Gradient program 2 • Injected sample amount: 2 μg • MS parameters: Intact and denaturing MS data were acquired in HMR mode at setting of R=15k and deconvolved using the ReSpect™ algorithm and Sliding Window integration in Thermo Scientific™ BioPharma Finder™ 4.0 software.
# Results for ring opening times measured by the LCMS method described above for monitoring ring hydrolysis are presented in Table 3 as RO T1/2 (h) (i.e., the time, in hours, for 50% of the maleimide rings to open).
# Conjugator-antibody conjugate maleimide hydrolysis (ring opening) kinetics are presented in FIGS. 1A-1L, Table 3 (for pH 7.0 reaction conditions, hydrolysis T1/2), and Table 5. The data in Table 5 was generated by the LCMS method described above and includes the time, in hours, for the maleimide ring to open in more than 95% of the conjugators, after antibody conjugation (“RO Completed Time (>95%) (h)”). The results for conjugator-antibody conjugate 3-1 indicate that after 24 hours, about 0% of maleimide rings were open; the results for conjugator-antibody conjugate 3-3 indicate that after 24 hours, about 28% of maleimide rings were open.
# [2] = Conjugator-antibody conjugate stability in pH 7.4 and 8.0 buffer with and without GSH;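 also: conjugate hydrolysis tracked by LC-MS analysis of reduced samples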
# [3] = Conjugator-antibody conjugate stability in formulation buffer (pH 5.5 20 mM histidine buffer); settings: pH 5.5, 22 °C
# Method: After the conjugation and hydrolysis steps described above (see “DAR8 antibody drug conjugate/conjugator-antibody conjugate preparation”), conjugator-antibody conjugates were incubated in formulation buffer (pH 5.5 20 mM histidine buffer) or glutathione (GSH) buffer (pH 7.4 or 8.0), […] Hydrolysis status was monitored via reduced LCMS. Results are presented in Table 6, Table 7, and FIGS. 2A-23B.
# [4] = pH 7.0, time for 50% of the maleimide rings to open, read-out: RO T1/2 (converted)
SMILES,"MS DAR ([1]; pH 7, time point 1 h)","RO (%) LC ([1]; pH 7, time point 1 h)","MS DAR ([1]; pH 7, time point 3 h)","RO (%) HC ([1]; pH 7, time point 3 h)","RO (%) LC ([1]; pH 7, time point 3 h)","RO (%) Total ([1]; pH 7, time point 3 h)","MS DAR ([1]; pH 7, time point 5 h)","RO (%) HC ([1]; pH 7, time point 5 h)","RO (%) LC ([1]; pH 7, time point 5 h)","RO (%) Total ([1]; pH 7, time point 5 h)","MS DAR ([1]; pH 7, time point 7 h)","RO (%) HC ([1]; pH 7, time point 7 h)","RO (%) LC ([1]; pH 7, time point 7 h)","RO (%) Total ([1]; pH 7, time point 7 h)","MS DAR ([1]; pH 7, time point 24 h)","RO (%) HC ([1]; pH 7, time point 24 h)","RO (%) LC ([1]; pH 7, time point 24 h)","RO (%) Total ([1]; pH 7, time point 24 h)",RO Completed Time (>95%) ([1]; pH 7),MS DAR-T = 0 h [3],also measured
CN(C)C(=O)CCOCC(N)CN1C(=O)C=CC1=O (stereo not drawn) [3-7],8.52,28.33%,8,79.61%,60.08%,74.73%,8,88.54%,77.85%,85.87%,8,87.98%,86.34%,87.57%,8,90.8%,92.99%,91.35%,>24 h,8.00,"half-life ([1]; pH 7): 1.7 h; RO (%) HC ([1]; pH 7, time point 1 h): 40.83%; RO (%) Total ([1]; pH 7, time point 1 h): 37.71%; MS DAR ([2]; incubation 20 h, pH 7.4, 22 °C): 8.00; MS DAR ([2]; incubation 20 h, pH 7.4, 37 °C): 8.00; MS DAR ([2]; incubation 20 h, pH 8.0, 22 °C): 8.00; MS DAR-T = 168 h ([3]; incubation 168 h): 8.00; Maleimide ring opening ratio (%) at T = 168 h ([3]; incubation 168 h): 97.99%"
CN(C)C(=O)CCNC(=O)OCCC(CN)N1C(=O)C=CC1=O (stereo not drawn) [3-13],8,21.50%,8,92.96%,64.20%,85.77%,8,100.00%,74.30%,93.58%,8,99.68%,93.68%,98.18%,8,100.00%,94.99%,98.75%,7 h,7.84,"half-life ([1]; pH 7): 1.7 h; RO (%) HC ([1]; pH 7, time point 1 h): 43.63%; RO (%) Total ([1]; pH 7, time point 1 h): 38.10%; MS DAR ([2]; incubation 24 h, pH 7.4, 22 °C): 7.90; MS DAR ([2]; incubation 24 h, pH 7.4, 37 °C): 7.90; MS DAR ([2]; incubation 24 h, pH 8.0, 22 °C): 7.90; MS DAR-T = 168 h ([3]; incubation 168 h): 7.88; Maleimide ring opening ratio (%) at T = 168 h ([3]; incubation 168 h): 98.33%"
NCC(COC(=O)NCCOCCOCCOCCOCCC(=O)O)N1C(=O)C=CC1=O (stereo not drawn) [3-4],7.96,23.19%,7.98,88.19%,75.33%,84.98%,7.98,90.01%,87.91%,89.49%,7.98,99.07%,95.37%,98.15%,7.98,99.08%,99.66%,99.23%,7 h,8.00,"half-life [1, 4]: 1.6 h; RO (%) HC ([1]; pH 7, time point 1 h): 51.56%; RO (%) Total ([1]; pH 7, time point 1 h): 44.47%; MS DAR ([2]; incubation 20 h, pH 7.4, 22 °C): 8.00; MS DAR ([2]; incubation 20 h, pH 7.4, 37 °C): 8.00; MS DAR ([2]; incubation 20 h, pH 8.0, 22 °C): 8.00; MS DAR-T = 168 h ([3]; incubation 168 h): 8.00; Maleimide ring opening ratio (%) at T = 168 h ([3]; incubation 168 h): 98.86%"
CC(C)N(CCC(=O)N(C)C)C(=O)OCC(CN)N1C(=O)C=CC1=O (stereo not drawn) [3-9],7.94,40.06%,7.94,99.84%,79.93%,94.86%,7.96,99.07%,89.36%,96.64%,7.96,100%,93.56%,98.39%,7.96,100%,99.17%,99.79%,5 h,8.00,"half-life [1, 4]: 0.8 h; RO (%) HC ([1]; pH 7, time point 1 h): 66.09%; RO (%) Total ([1]; pH 7, time point 1 h): 59.58%; MS DAR ([2]; incubation 20 h, pH 7.4, 22 °C): 8.00; MS DAR ([2]; incubation 20 h, pH 7.4, 37 °C): 8.00; MS DAR ([2]; incubation 20 h, pH 8.0, 22 °C): 8.00; MS DAR-T = 168 h ([3]; incubation time printed 240 h): 8.00; Maleimide ring opening ratio (%) at T = 168 h ([3]; incubation time printed 240 h): 98.51%"
CN(C)C(=O)CCNC(=O)NCC(CN)N1C(=O)C=CC1=O (stereo not drawn) [3-12],8,27.31%,8,89.82%,74.84%,86.08%,8,95.33%,78.30%,91.07%,8,99.07%,88.53%,96.44%,8,99.64%,95.87%,98.70%,7 h,8.02,"half-life [1, 4]: 1.6 h; RO (%) HC ([1]; pH 7, time point 1 h): 45.46%; RO (%) Total ([1]; pH 7, time point 1 h): 40.92%; MS DAR ([2]; incubation 24 h, pH 7.4, 22 °C): 8.00; MS DAR ([2]; incubation 24 h, pH 7.4, 37 °C): 8.00; MS DAR ([2]; incubation 24 h, pH 8.0, 22 °C): 8.00; MS DAR-T = 168 h ([3]; incubation 168 h): 8.02; Maleimide ring opening ratio (%) at T = 168 h ([3]; incubation 168 h): 97.83%"
CN(C)C(=O)CCOCCC(CN)N1C(=O)C=CC1=O (stereo not drawn) [3-14],8,17.39%,8,67.87%,32.97%,59.15%,8,85.71%,77.46%,83.65%,8,95.45%,72.00%,89.59%,8,99.69%,95.83%,98.73%,24 h,8.00,"half-life [1, 4]: 2 h; RO (%) HC ([1]; pH 7, time point 1 h): 46.79%; RO (%) Total ([1]; pH 7, time point 1 h): 39.44%; MS DAR ([2]; incubation 24 h, pH 7.4, 22 °C): 7.98; MS DAR ([2]; incubation 24 h, pH 7.4, 37 °C): 8.00; MS DAR ([2]; incubation 24 h, pH 8.0, 22 °C): 8.00; MS DAR-T = 168 h ([3]; incubation 168 h): 8.00; Maleimide ring opening ratio (%) at T = 168 h ([3]; incubation 168 h): 97.15%"
CN(C)C(=O)CCCCC(CN)N1C(=O)C=CC1=O (stereo not drawn) [3-10],8,21.63%,8,76.09%,49.46%,69.43%,8,91.86%,64.05%,84.91%,8,98.26%,83.47%,94.56%,8,99.52%,100%,99.64%,7 h,8.00,"half-life [1, 4]: 2 h; RO (%) HC ([1]; pH 7, time point 1 h): 42.51%; RO (%) Total ([1]; pH 7, time point 1 h): 37.29%; MS DAR ([2]; incubation 20 h, pH 7.4, 22 °C): 8.00; MS DAR ([2]; incubation 20 h, pH 7.4, 37 °C): 8.00; MS DAR ([2]; incubation 20 h, pH 8.0, 22 °C): 8.00; MS DAR-T = 168 h ([3]; incubation 168 h): 8.00; Maleimide ring opening ratio (%) at T = 168 h ([3]; incubation 168 h): 98.38%"
CN(C)C(=O)CN(C)C(=O)OCC(CN)N1C(=O)C=CC1=O (stereo not drawn) [3-8],7.74,44.94%,7.88,96.11%,80.15%,92.12%,7.78,99.49%,92.96%,97.85%,7.8,99.47%,94.42%,98.21%,7.8,99.55%,95.48%,98.53%,5 h,7.76,"half-life [1, 4]: 1.6 h; MS DAR ([2]; incubation 20 h, pH 7.4, 22 °C): 7.92; MS DAR ([2]; incubation 20 h, pH 7.4, 37 °C): 7.92; MS DAR ([2]; incubation 20 h, pH 8.0, 22 °C): 7.88; MS DAR-T = 168 h ([3]; incubation 168 h): 7.80; Maleimide ring opening ratio (%) at T = 168 h ([3]; incubation 168 h): 95.50%"
